In article PMC8319318 (2021):

Target: actin filament (skeletal muscle actin) (Oryctolagus cuniculus, UniProt P68135)
Test: TIRF microscopy (steady-state fluorescence density)

B1: anillin (protein)
chain: MDPFTEKLLERTRARRENLQRKMAERPTAAPRSMTHAKRARQPLSEASNQQPLSGGEEKSCTKPSPSKKRCSDNTEVEVSNLENKQPVESTSAKSCSPSPVSPQVQPQAADTISDSVAVPASLLGMRRGLNSRLEATAASSVKTRMQKLAEQRRRWDNDDMTDDIPESSLFSPMPSEEKAASPPRPLLSNASATPVGRRGRLANLAATICSWEDDVNHSFAKQNSVQEQPGTACLSKFSSASGASARINSSSVKQEATFCSQRDGDASLNKALSSSADDASLVNASISSSVKATSPVKSTTSITDAKSCEGQNPELLPKTPISPLKTGVSKPIVKSTLSQTVPSKGELSREICLQSQSKDKSTTPGGTGIKPFLERFGERCQEHSKESPARSTPHRTPIITPNTKAIQERLFKQDTSSSTTHLAQQLKQERQKELACLRGRFDKGNIWSAEKGGNSKSKQLETKQETHCQSTPLKKHQGVSKTQSLPVTEKVTENQIPAKNSSTEPKGFTECEMTKSSPLKITLFLEEDKSLKVTSDPKVEQKIEVIREIEMSVDDDDINSSKVINDLFSDVLEEGELDMEKSQEEMDQALAESSEEQEDALNISSMSLLAPLAQTVGVVSPESLVSTPRLELKDTSRSDESPKPGKFQRTRVPRAESGDSLGSEDRDLLYSIDAYRSQRFKETERPSIKQVIVRKEDVTSKLDEKNNAFPCQVNIKQKMQELNNEINMQQTVIYQASQALNCCVDEEHGKGSLEEAEAERLLLIATGKRTLLIDELNKLKNEGPQRKNKASPQSEFMPSKGSVTLSEIRLPLKADFVCSTVQKPDAANYYYLIILKAGAENMVATPLASTSNSLNGDALTFTTTFTLQDVSNDFEINIEVYSLVQKKDPSGLDKKKKTSKSKAITPKRLLTSITTKSNIHSSVMASPGGLSAVRTSNFALVGSYTLSLSSVGNTKFVLDKVPFLSSLEGHIYLKIKCQVNSSVEERGFLTIFEDVSGFGAWHRRWCVLSGNCISYWTYPDDEKRKNPIGRINLANCTSRQIEPANREFCARRNTFELITVRPQREDDRETLVSQCRDTLCVTKNWLSADTKEERDLWMQKLNQVLVDIRLWQPDACYKPIGKP
modifications: anillin C-terminal GFP tag; F-actin stabilised with biotin-phalloidin
With B1 the Kd was 7.82 nM.
